Measured values published in patent US20210017289A1 (AbbVie / Abbott, published 2021).
“And” between values parts separate entries of the source, which are not always exact repeats. Equal entries are not always repeated. Where two headings read alike, the source gives them in different places.

T1: human OX40 expressed on cells (human, UniProt P43489 29-277)
T1 sequence: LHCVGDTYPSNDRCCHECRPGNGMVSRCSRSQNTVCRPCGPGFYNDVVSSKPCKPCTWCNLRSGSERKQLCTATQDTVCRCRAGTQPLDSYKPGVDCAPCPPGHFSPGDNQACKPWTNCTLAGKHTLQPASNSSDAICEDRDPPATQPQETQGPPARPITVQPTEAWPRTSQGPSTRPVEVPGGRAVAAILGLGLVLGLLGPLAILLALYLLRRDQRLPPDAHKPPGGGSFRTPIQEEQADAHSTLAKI

T2: recombinant soluble human OX40 ECD (residues 1-216) (human, UniProt P43489 29-216)
T2 construct: Purchased from Creative Biomart and further purified by gel filtration; also called recombinant extracellular domain of human OX40
T2 sequence: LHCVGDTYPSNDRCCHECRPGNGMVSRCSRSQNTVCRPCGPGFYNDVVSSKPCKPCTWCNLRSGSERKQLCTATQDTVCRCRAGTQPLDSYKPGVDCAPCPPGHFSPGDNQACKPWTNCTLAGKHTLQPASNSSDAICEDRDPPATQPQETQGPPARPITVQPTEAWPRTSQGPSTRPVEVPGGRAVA


How the values were obtained:
[1] = biological target: T1, human OX40 expressed on cells; assay: cell-based or functional assay
[2] = biological target: T1, human OX40 expressed on cells; assay: flow cytometry on Jurkat NF-κB reporter cells expressing human OX40
Protocol: A Jurkat NF-κB reporter cell line expressing human OX40 protein was cultured in DMEM containing 10% FBS and penicillin/streptomycin (pen/strep). For the binding assay, each cell line was resuspended at 5 million cells per mL. 50 μL (250,000 cells)/well were transferred to each well of a 500 μL polypropylene 96-well plate (Nunc). A 2× stock of test anti-OX40 antibody or isotype control mAb was prepared in a separate dilution plate at 666, 333, 111, 37.03, 12.34, 4.11, 0.457, 0.152, 0.0508, 0.0169, 0.00564 nM in culture media. Each antibody (50 μL/well) was transferred into respective wells of the assay plate. Cells were incubated with the test anti-OX40 antibody or isotype control antibodies for 30 minutes at 4° C. and washed twice with 250 μL/well of PBS by centrifuging at 800 rpm for 3 minutes. Bound antibody was detected with Cy5-Donkey anti-human IgG (H+L) (Jackson ImmunoResearch) diluted to 2 μg/mL (50 μL/well) in PBS for 30 minutes at 4° C. Cells were washed once with 250 μL/well of PBS, resuspended in PBS containing 1% Formaldehyde and analyzed on a dual laser FACSCalibur (Becton Dickinson).

[3] = biological target: T1, human OX40 expressed on cells; assay: cell-based or functional assay; remark: listed apart in the source
[4] = biological target: T2, recombinant soluble human OX40 ECD …; assay: SPR (Biacore T200, 25 °C), antibody captured by anti-Fc, OX40 ECD as analyte
Protocol: The binding kinetics of an anti-OX40 antibody to recombinant soluble OX40 ECD (extracellular domain) were determined by surface plasmon resonance-based measurements made on a Biacore T200 instrument (GE Healthcare) at 25° C. using an anti-Fc capture assay approach. Recombinant extracellular domains (ECDs) of human OX40 (residues 1-216) and rhesus macaque OX40 (residues 28-214) were purchased (Creative Biomart) and further purified by gel filtration using Superdex200 (GE Healthcare) in 10 mM 4-(2-hydroxyethyl)-1-piperazineethanesulfonic acid (HEPES), pH 7.4, 150 mM NaCl, 3 mM ethylenediaminetetraacetic acid (EDTA). Rhesus macaque (Macaca mulatta) OX40 is identical to cynomolgus monkey (Macaca fascicularis) OX40 (SEQ ID NO:2) at the amino acid level. Chip preparation and binding kinetic measurements were made in the assay buffer HBS-EP+(10 mM HEPES, pH 7.4, 150 mM NaCl, 3 mM EDTA, 0.05% Tween 20). For anti-Fc capture chip preparation, approximately 2000 Resonance Units (RU) of goat anti-human IgG Fc polyclonal antibody (Thermo Fisher Scientific Inc.), diluted to 25 μg/mL in 10 mM sodium acetate (pH 4.5), was directly immobilized across a CMS biosensor chip using a standard amine coupling kit according to manufacturer's instructions and procedures. Unreacted moieties on the biosensor surface were blocked with ethanolamine. For binding kinetics measurements each assay cycle consisted of the following steps: 1) capture of test anti-OX40 antibody on test surface only; 2) analyte injection (OX40 ECD or buffer only) over both reference and test surface, 240 μL at 80 μL/min, after which the dissociation was monitored for 900 seconds at 80 μL/min; 3) regeneration of capture surface by 10 mM Glycine-HCl, pH 1.5 injections over both reference and test surface. During the assay, all measurements were referenced against the capture surface alone (i.e., with no captured test antibody) and buffer-only injections were used for double referencing. OX40 injections ranged in concentration from 900 nM or 300 nM to 11.11 nM in a randomized 9- or 3-fold dilution series, respectively. Data were processed and fitted globally to a 1:1 binding model using Biacore T200 Evaluation software to determine the binding kinetic rate constants, kₐ (M⁻¹s⁻¹) and kd (s¹), and the equilibrium dissociation constant KD (M).

[5] = biological target: T1, human OX40 expressed on cells; assay: flow cytometry competition on human OX40-expressing Jurkat cells; OX40L titrated against 0.2 µg/mL Hu3738 (competitor)
[6] = biological target: T1, human OX40 expressed on cells; assay: cell-based or functional assay; remark: listed apart in the source
[7] = biological target: T1, human OX40 expressed on cells; assay: competition by flow cytometry on Jurkat-NF-κB-huOX40 cells; competitor: ALEXA FLUOR 647-labeled Hu3738 at 2 µg/mL
Protocol: Analysis was performed by flow cytometry.

Molecule | EC50 With Cross-linker (nM), NF-κB signaling [3] | EC50 Without Cross-linker (nM), NF-κB signaling [3] | Kd [4] | koff [4] | further results
Isotype control antibody |  |  |  |  | EC50 With Cross-linker (nM), NF-κB signaling [1]: > 100 µg/mL; EC50 Without Cross-linker (nM), NF-κB signaling [1]: > 100 µg/mL
18D8 (antibody, human IgG1, V domains shown, also called literature anti-OX40 antibody 18D8) VH: EVQLVESGGGLVQPGRLSRLSCAASGFTFDDYAMHWVRQAPGKGLEWVSGISWNSGSIGYADSVKGRFTISRENAKNSLYLQMNSLRAEDTALYYCAKDQSTADYYFYYGMDVWGQGTTVTVSS VL: EIVVTQSPATLSLSPGERATLSCRASQSVSSYLAWYQQKPGQAPRLLIYDASNRATGIPARFSGSGSGTDFTLTISSLEPEDFAVYYCQQRSNWPTFGQGTKVEIK | 0.5 nM | > 100 µg/mL | 9.1 nM | 0.11 s⁻¹ | EC50 [2]: 0.258 µg/mL
119-122 (antibody, human IgG1, V domains shown) VH: EVQLVESGGGLVQPGGSLRLSCAASEYEFPSHDMSWVRQAPGKGLELVAAINSDGGSTYYPDTMERRFTISRDNAKNSLYLQMNSLRAEDTAVYYCARHYDDYYAWFAYWGQGTMVTVSS VL: EIVLTQSPATLSLSPGERATLSCRASKSVSTSGYSYMHWYQQKPGQAPRLLIYLASNLESGVPARFSGSGSGTDFTLTISSLEPEDFAVYYCQHSRELPLTFGGGTKVEIK | 0.34 nM | > 100 µg/mL |  |  | 
soluble human OX40 ligand (OX40L) (ligand, also called CD252; TNFSF4) QVSHRYPRIQSIKVQFTEYKKEKGFILTSQKEDEIMKVQNNSVIINCDGFYLISLKGYFSQEVNISLHYQKDEEPLFQLKKVRSVNSLMVASLTYKDKVYLNVTTDNTSLDDFHVNGGELILIHQNPGEFCVL |  |  |  |  | IC50 [5]: 0.067 nM and 0.01 µg/mL
1A7 (antibody, human IgG1, V domains shown, 2015/0307617; also called literature anti-OX40 antibody 1A7) VH: EVQLQQSGPELVKPGASVKISCKASGYTFTDSYMSWVKQSHGKTLEWIGDMYPDNGDSSYNQKFREKVTLTVDKSSTTAYMEFRSLTSEDSAVYYCVLAPRWYFSVWGTGTTVTVSS VL: DIQMTQTTSSLSASLGDRVTISCRASQDISNYLNWYQQKPDGTVKLLIYYTSRLRSGVPSRFSGSGSGKDYFLTISNLEQEDVAAYFCQQGHTLPPTFGGGTKLEIK |  |  |  |  | EC50 With Cross-linker (nM), NF-κB signaling [6]: 0.066 nM; EC50 Without Cross-linker (nM), NF-κB signaling [6]: > 100 µg/mL; IC50 (read off the curve) [7]: ~0.6 µg/mL
106-222 (antibody, human IgG1, V domains shown, 2013/0280275) VH: QVQLVQSGSELKKPGASVKVSCKASGYTFTDYSMHWVRQAPGQGLKWMGWINTETGEPTYADDFKGRFVFSLDTSVSTAYLQISSLKAEDTAVYYCANPYYDYVSYYAMDYWGQGTTVTVSS VL: DIQMTQSPSSLSASVGDRVTITCKASQDVSTAVAWYQQKPGKAPKLLIYSASYLYTGVPSRFSGSGSGTDFTFTISSLQPEDIATYYCQQHYSTPRTFGQGTKLEIK | 0.63 nM | > 100 µg/mL |  |  | IC50 (read off the curve) [7]: ~1 µg/mL

The next lines start with results.

EC50 With Cross-linker (nM), NF-κB signaling [3] | EC50 Without Cross-linker (nM), NF-κB signaling [3] | Kd [4] | koff [4] | Molecule | further results
 |  | 360 nM | 0.016 s⁻¹ | Hu3739 (antibody, V domains shown, Humanized antibody; also called Hu3739 VH.1b / Hu3739 VL.1b) VH: EVQLVQSGAEVKKPGSSVKVSCKASGFNIKDTYMHWVRQAPGQGLEWIGRIDPANGNTKYDPKFQGRATITADTSTNTAYMELSSLRSEDTAVYYCARGGPAWFVYWGQGTLVTVSS VL: DIQMTQSPSSLSASVGDRVTITCRASQDISNYLNWYQQKPGKAPKLLIYYTSRLRSGLPSRFSGSGSGTDYTLTISSLQPEDFATYYCQQGNTLPWTFGGGTKVEIKR | 
 |  | 3000 nM | 0.31 s⁻¹ | Hu3741 (antibody, V domains shown, Humanized antibody; also called Hu3741 VH.2b / Hu3741 VL.1c) VH: EVQLVESGGGLVQPGGSLRLSCAVSGFSLTSYGVHWVRQAPGKGLEWLGVIWSGGSTDYNAAFISRLTISKDNSKSTVYLQMNSLRAEDTAVYYCAREEFDYWGQGTTVTVSS VL: DIQMTQSPSSLSASVGDRVTITCRASQDISNYLNWFQQKPGKAPKLLIYYTSRLHSGVPSRFSGSGSGTDYTLTISSLQPEDFATYYCQQGYTLPPTFGGGTKVEIKR | 
